# Results published in paper PMC6167328, “Elucidating a role for the cytoplasmic domain in the Mycobacterium tuberculosis mechanosensitive channel of large conductance” (Scientific Reports, 2018).
# B1: C-terminal domain truncation of the Mycobacterium tuberculosis mechanosensitive channel of large conductance (MtMscLΔC) (domain or fragment)
# chain: MLKGFKEFLARGNIVDLAVAVVIGTAFTALVTKFTDSIITPLINRIGVNAQSDVGILRIGIGGGQTIDLNVLLSAAINFFLIAFAVYFLVVLPYNTLRKKG
# notes: Residues 97-101 are not resolved in the model; also called Mt ∆C
# Target: the molecule itself
# Experiment: crystal structure
protein,measurement,value
B1,stoichiometry N,5
